Read-outs that look alike come from different tables or passages of the source.
Key:
Test in all cases: cell-based or functional assay
[1] = target: T1, human GPC3 on tumor cell lines (HepG2, Huh-7, NCI-H661, MKN-45, NCI-H23, BxPC-3, NCI-H292) (human, UniProt P51654 25-554)
[2] = target: T1, human GPC3 on tumor cell lines (HepG2, …); remark: listed apart in the source
[3] = target: T1, human GPC3 on tumor cell lines (HepG2, …); remark: listed apart in the source
[4] = target: T1, human GPC3 on tumor cell lines (HepG2, …); remark: listed apart in the source

B1: A022600122 (other)
chain: DVQLVESGGGVVQPGGSLRLSCVASGYVHKINFYGWYRQAPGKEREKVAHISIGDQTDYADSAKGRFTISRDESKNTVYLQMNSLRPEDTALYYCRALSRIWPYDYWGQGTLVTVSSGGGGSEVQLVESGGGLVQPGGSLRLSCVASGFTFSSFAMTWVRRPPGKGLEWVATITNGGVTSYRDSVKGRFTISRDNAKNTLYLEMTSLNPEDTAVYICANARRTGPRAPTDIGSYRGQGTLVTVSSGGGGSGGGGSGGGGSGGGGSGGGGSGGGGSGGGGSEVQLVESGGGLVQPGGSLRLSCVASGSIFRSVFSSSTMEWYRQPPGKKRELVARIAPGDGTNYGALYADSVKGRFTISRDDAKKTVDLQMNSLKPEDTGVYFCASGVAWGQGTLVTVSSGGGGSGGGGSGGGGSGGGGSGGGGSGGGGSGGGGSEVQLVESGGGVVQPGGSLRLSCAASGFTFRSFGMSWVRQAPGKGPEWVSSISGSGSDTLYADSVKGRFTISRDNSKNTLYLQMNSLRPEDTALYYCTIGGSLSRSSQGTLVTVSSA
IC50 (M), Incucyte human TDC HepG2-Nuclight green assay [1]: 4.45e-10 M | Max % Killing, Incucyte human TDC HepG2-Nuclight green assay [1]: 92% | HepG2 on Incucyte IC50 [2]: 0.53 nM | HepG2 on Incucyte Max % killing [2]: 93% | Huh7 on xCELLigence IC50 [2]: 0.261 nM | Huh7 on xCELLigence Max % killing [2]: 101%

B2: A022600132 (other)
chain: DVQLVESGGGVVQPGGSLRLSCVASGYVHKINFYGWYRQAPGKEREKVAHISIGDQTDYADSAKGRFTISRDESKNTVYLQMNSLRPEDTALYYCRALSRIWPYDYWGQGTLVTVSSGGGGSEVQLVESGGGLVQPGGSLRLSCVASGFTFSSFAMTWVRRPPGKGLEWVATITNGGVTSYRDSVKGRFTISRDNAKNTLYLEMTSLNPEDTAVYICANARRTGPRAPTDIGSYRGQGTLVTVSSGGGGSGGGSEVQLVESGGGLVQPGGSLRLSCVASGSIFRSVFSSSTMEWYRQPPGKKRELVARIAPGDGTNYGALYADSVKGRFTISRDDAKKTVDLQMNSLKPEDTGVYFCASGVAWGQGTLVTVSSGGGGSGGGGSGGGGSGGGGSGGGGSGGGGSGGGGSEVQLVESGGGVVQPGGSLRLSCAASGFTFRSFGMSWVRQAPGKGPEWVSSISGSGSDTLYADSVKGRFTISRDNSKNTLYLQMNSLRPEDTALYYCTIGGSLSRSSQGTLVTVSSA
IC50 (M), Incucyte human TDC HepG2-Nuclight green assay [1]: 7.02e-10 M | Max % Killing, Incucyte human TDC HepG2-Nuclight green assay [1]: 91% | HepG2 on Incucyte IC50 [2]: 0.683 nM | HepG2 on Incucyte Max % killing [2]: 83% | Huh7 on xCELLigence IC50 [2]: 0.29 nM | Huh7 on xCELLigence Max % killing [2]: 95%

B3: A022600174 (other)
chain: DVQLVESGGGVVQPGGSLRLSCVASGYVHKINFYGWYRQAPGKEREKVAHISIGDQTDYADSAKGRFTISRDESKNTVYLQMNSLRPEDTAAYYCRALSRIWPYDYWGQGTLVTVSSGGGGSEVQLVESGGGLVQPGGSLRLSCVASGFTFSSFAMTWVRRPPGKGLEWVATITNGGVTSYRDSVKGRFTISRDNAKNTLYLEMTSLNPEDTAVYICANARRTGPRAPTDIGSYRGQGTLVTVSSGGGGSGGGSEVQLVESGGGLVQPGGSLRLSCVASGSIFRSVFSSSTMEWYRQPPGKKRELVARIAPGDGTNYGALYADSVKGRFTISRDDAKKTVDLQMNSLKPEDTGVYFCASGVAWGQGTLVTVSSGGGGSGGGSEVQLVESGGGVVQPGGSLRLSCAASGFTFRSFGMSWVRQAPGKGPEWVSSISGSGSDTLYADSVKGRFTISRDNSKNTLYLQMNSLRPEDTALYYCTIGGSLSRSSQGTLVTVSSA
HepG2 on Incucyte IC50 [3]: 0.673 nM | HepG2 on Incucyte Max % killing [3]: 96% | Huh7 on xCELLigence IC50 [3]: 0.0626 nM | Huh7 on xCELLigence Max % killing [3]: 99% | HepG2 on Incucyte IC50 [4]: 0.673 nM | HepG2 on Incucyte Max % killing [4]: 96% | Huh7 on xCELLigence IC50 [4]: 0.0626 nM | Huh7 on xCELLigence Max % killing [4]: 99%

B4: A022600133 (other)
chain: DVQLVESGGGVVQPGGSLRLSCVASGYVHKINFYGWYRQAPGKEREKVAHISIGDQTDYADSAKGRFTISRDESKNTVYLQMNSLRPEDTALYYCRALSRIWPYDYWGQGTLVTVSSGGGGSEVQLVESGGGLVQPGGSLRLSCVASGSIFRSVFSSSTMEWYRQPPGKKRELVARIAPGDGTNYGALYADSVKGRFTISRDDAKKTVDLQMNSLKPEDTGVYFCASGVAWGQGTLVTVSSGGGGSGGGGSGGGGSGGGGSGGGGSGGGGSGGGGSEVQLVESGGGLVQPGGSLRLSCVASGFTFSSFAMTWVRRPPGKGLEWVATITNGGVTSYRDSVKGRFTISRDNAKNTLYLEMTSLNPEDTAVYICANARRTGPRAPTDIGSYRGQGTLVTVSSGGGGSGGGGSGGGGSGGGGSGGGGSGGGGSGGGGSEVQLVESGGGVVQPGGSLRLSCAASGFTFRSFGMSWVRQAPGKGPEWVSSISGSGSDTLYADSVKGRFTISRDNSKNTLYLQMNSLRPEDTALYYCTIGGSLSRSSQGTLVTVSSA
IC50 (M), Incucyte human TDC HepG2-Nuclight green assay [1]: 4.08e-10 M | Max % Killing, Incucyte human TDC HepG2-Nuclight green assay [1]: 92%

B5: A022600135 (other)
chain: DVQLVESGGGVVQPGGSLRLSCVASGYVHKINFYGWYRQAPGKEREKVAHISIGDQTDYADSAKGRFTISRDESKNTVYLQMNSLRPEDTALYYCRALSRIWPYDYWGQGTLVTVSSGGGGSEVQLVESGGGLVQPGGSLRLSCVASGSIFRSVFSSSTMEWYRQPPGKKRELVARIAPGDGTNYGALYADSVKGRFTISRDDAKKTVDLQMNSLKPEDTGVYFCASGVAWGQGTLVTVSSGGGGSGGGSEVQLVESGGGLVQPGGSLRLSCVASGFTFSSFAMTWVRRPPGKGLEWVATITNGGVTSYRDSVKGRFTISRDNAKNTLYLEMTSLNPEDTAVYICANARRTGPRAPTDIGSYRGQGTLVTVSSGGGGSGGGGSGGGGSGGGGSGGGGSGGGGSGGGGSEVQLVESGGGVVQPGGSLRLSCAASGFTFRSFGMSWVRQAPGKGPEWVSSISGSGSDTLYADSVKGRFTISRDNSKNTLYLQMNSLRPEDTALYYCTIGGSLSRSSQGTLVTVSSA
IC50 (M), Incucyte human TDC HepG2-Nuclight green assay [1]: 6.11e-10 M | Max % Killing, Incucyte human TDC HepG2-Nuclight green assay [1]: 91%

B6: A022600131 (other)
chain: DVQLVESGGGVVQPGGSLRLSCVASGYVHKINFYGWYRQAPGKEREKVAHISIGDQTDYADSAKGRFTISRDESKNTVYLQMNSLRPEDTALYYCRALSRIWPYDYWGQGTLVTVSSGGGGSEVQLVESGGGLVQPGGSLRLSCVASGFTFSSFAMTWVRRPPGKGLEWVATITNGGVTSYRDSVKGRFTISRDNAKNTLYLEMTSLNPEDTAVYICANARRTGPRAPTDIGSYRGQGTLVTVSSGGGGSGGGGSGGGGSGGGGSEVQLVESGGGLVQPGGSLRLSCVASGSIFRSVFSSSTMEWYRQPPGKKRELVARIAPGDGTNYGALYADSVKGRFTISRDDAKKTVDLQMNSLKPEDTGVYFCASGVAWGQGTLVTVSSGGGGSGGGGSGGGGSGGGGSGGGGSGGGGSGGGGSEVQLVESGGGVVQPGGSLRLSCAASGFTFRSFGMSWVRQAPGKGPEWVSSISGSGSDTLYADSVKGRFTISRDNSKNTLYLQMNSLRPEDTALYYCTIGGSLSRSSQGTLVTVSSA
IC50 (M), Incucyte human TDC HepG2-Nuclight green assay [1]: 4.44e-10 M | Max % Killing, Incucyte human TDC HepG2-Nuclight green assay [1]: 94%

B7: A022600134 (other)
chain: DVQLVESGGGVVQPGGSLRLSCVASGYVHKINFYGWYRQAPGKEREKVAHISIGDQTDYADSAKGRFTISRDESKNTVYLQMNSLRPEDTALYYCRALSRIWPYDYWGQGTLVTVSSGGGGSEVQLVESGGGLVQPGGSLRLSCVASGSIFRSVFSSSTMEWYRQPPGKKRELVARIAPGDGTNYGALYADSVKGRFTISRDDAKKTVDLQMNSLKPEDTGVYFCASGVAWGQGTLVTVSSGGGGSGGGGSGGGGSGGGGSEVQLVESGGGLVQPGGSLRLSCVASGFTFSSFAMTWVRRPPGKGLEWVATITNGGVTSYRDSVKGRFTISRDNAKNTLYLEMTSLNPEDTAVYICANARRTGPRAPTDIGSYRGQGTLVTVSSGGGGSGGGGSGGGGSGGGGSGGGGSGGGGSGGGGSEVQLVESGGGVVQPGGSLRLSCAASGFTFRSFGMSWVRQAPGKGPEWVSSISGSGSDTLYADSVKGRFTISRDNSKNTLYLQMNSLRPEDTALYYCTIGGSLSRSSQGTLVTVSSA
IC50 (M), Incucyte human TDC HepG2-Nuclight green assay [1]: 5.28e-10 M | Max % Killing, Incucyte human TDC HepG2-Nuclight green assay [1]: 92%

— patent publication US20240343823A1 (Ablynx, published 2024)
